According to PMC6150654:

Biological target: Human PTH1 receptor with a His-tag (human) (UniProt Q03431)
Assay: QCM biosensor; PTH1R amine coupled to an LNB-carboxyl chip (Attana Cell 200); PTH injected at 4-20 ug/mL, 35 uL, 25 uL/min, dissociation 510 s; 20 °C; 10 mM HEPES, 150 mM NaCl, 0.005% Tween-20, pH 7.4; rate constant distributions (AIDA) and two-site model fitted to the sensorgrams one by one

Sequence of UniProt Q03431 (Q03431 27-593): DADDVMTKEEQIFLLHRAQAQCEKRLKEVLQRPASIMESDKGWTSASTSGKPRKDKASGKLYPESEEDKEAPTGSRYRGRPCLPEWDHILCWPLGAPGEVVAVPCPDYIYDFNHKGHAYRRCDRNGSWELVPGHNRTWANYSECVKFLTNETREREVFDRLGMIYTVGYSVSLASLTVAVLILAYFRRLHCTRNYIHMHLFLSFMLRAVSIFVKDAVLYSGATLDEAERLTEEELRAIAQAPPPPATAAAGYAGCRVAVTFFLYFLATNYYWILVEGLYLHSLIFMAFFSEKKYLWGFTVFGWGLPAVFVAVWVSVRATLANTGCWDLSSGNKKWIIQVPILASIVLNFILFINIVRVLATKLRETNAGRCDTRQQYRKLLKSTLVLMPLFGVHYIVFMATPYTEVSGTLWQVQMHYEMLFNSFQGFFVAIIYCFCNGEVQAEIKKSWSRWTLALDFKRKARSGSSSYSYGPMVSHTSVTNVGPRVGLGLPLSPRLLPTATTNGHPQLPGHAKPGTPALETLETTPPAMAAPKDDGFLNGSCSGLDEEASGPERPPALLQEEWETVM

log10(ka), both distributions of the RCD (4129 nM injection): 4 | log10(ka), first cluster (two-site fit): 4.2 | log10(ka), second cluster (two-site fit): 3.7 | log10(kd), first cluster (two-site fit): -0.9 | log10(kd), one distribution of the RCD (4129 nM injection): -2 | log10(kd), other distribution of the RCD (4129 nM injection): -1 | log10(kd), second cluster (two-site fit): -2.3
Substance: parathyroid hormone (1-34) (peptide)
